Laboratory results from US20150165065A1 (AVIDBIOTICS, published 2015).
Where two headings read alike, the source gives them in different places.

B1: soluble MICA generated from pKK46 (loop 1 insert extended 5.1sp) (designed binder)
chain: HHHHHHEPHSLRYNLTVLSWDGSVQSGFLTEVHLDGQPFLRCDRQKCRAKPQGQWAEDVLGNKTWDRETRDLTGNGKDLRMTLAHIKDQKEGLHSLQEIRVCEIHEDNSTRSSQHFYYDGELFLSQNLETEEWTMPQSSRAQTLAMNVRNFLKEDAMKTKTHYHAMHADCLQELRRYLKSGVVLRRTVPPMVNVTSGGSGGGSVTRGDTFTQSSGGSGGGVTCRASGFYPWNITLSWRQDGVSLSHDTQQWGDVLPDGNGTYQTWVATRICQGEEQRFTCYMEHSGNHSTHPVPSGK
notes: From pKK34 (His6, Glu125); secreted by 293T cells; also called 1-5.1sp
B2: M13 phage pKK107 displaying MICA α3 domain with tight loop 1 insert T-3.1 (designed binder)
chain: TVPPMVNTSRGDHPRTQCRASGFYPWNITLSWRQDGVSLSHDTQQWGDVLPDGNGTYQTWVATRICQGEEQRFTCYMEHSGNHSTHPVPSGK
notes: also called 1-T-3.1; not shown: C-terminal portion of M13 gene III protein, fused at codon position 198
B3: M13 phage pKK111 displaying MICA α3 domain with tight loop 1 insert T-5.3 (designed binder)
chain: TVPPMVNHLARGDDLTYCRASGFYPWNITLSWRQDGVSLSHDTQQWGDVLPDGNGTYQTWVATRICQGEEQRFTCYMEHSGNHSTHPVPSGK
notes: also called 1-T-5.3; not shown: C-terminal portion of M13 gene III protein, fused at codon position 198
B4: M13 phage pKK108 displaying MICA α3 domain with tight loop 1 insert T-3.5 (designed binder)
chain: TVPPMVNGSRGDSLIMHCRASGFYPWNITLSWRQDGVSLSHDTQQWGDVLPDGNGTYQTWVATRICQGEEQRFTCYMEHSGNHSTHPVPSGK
notes: also called 1-T-3.5; not shown: C-terminal portion of M13 gene III protein, fused at codon position 198
B5: M13 phage pKK110 displaying MICA α3 domain with tight loop 1 insert T-5.1 (designed binder)
chain: TVPPMVNVTRGDTFTQSCRASGFYPWNITLSWRQDGVSLSHDTQQWGDVLPDGNGTYQTWVATRICQGEEQRFTCYMEHSGNHSTHPVPSGK
notes: also called 1-T-5.1; not shown: C-terminal portion of M13 gene III protein, fused at codon position 198
B6: M13 phage pKK97 displaying MICA α3 domain with loop 1 insert 5.2 (designed binder)
chain: TVPPMVNVTRGDTFTQSVTCRASGFYPWNITLSWRQDGVSLSHDTQQWGDVLPDGNGTYQTWVATRICQGEEQRFTCYMEHSGNHSTHPVPSGK
notes: also called 1-5.2; not shown: C-terminal portion of M13 gene III protein, fused at codon position 198
B7: M13 phage pKK101 displaying MICA α3 domain with loop 1 insert 3.3sp (designed binder)
chain: TVPPMVNVTSGGSGGGSRVPRGDSDLTSGGSGGGVTCRASGFYPWNITLSWRQDGVSLSHDTQQWGDVLPDGNGTYQTWVATRICQGEEQRFTCYMEHSGNHSTHPVPSGK
notes: also called 1-3.3sp; not shown: C-terminal portion of M13 gene III protein, fused at codon position 198
B8: M13 phage pKK106 displaying wild type MICA α3 domain fused to pIII (other)
chain: TVPPMVNVTRSEASEGNITVTCRASGFYPWNITLSWRQDGVSLSHDTQQWGDVLPDGNGTYQTWVATRICQGEEQRFTCYMEHSGNHSTHPVPSGK
notes: also called WT; not shown: C-terminal portion of M13 gene III protein, fused at codon position 198

Experiments:
[1] = molecular target: T1, integrin αVβ5 (UniProt P06756 31-992; P18084 24-719); test: ELISA, coated integrin, anti-MICA-HRP
T1 construct: Coated on the ELISA plate
T1 sequence (P06756 31-992, chain 1 of 2): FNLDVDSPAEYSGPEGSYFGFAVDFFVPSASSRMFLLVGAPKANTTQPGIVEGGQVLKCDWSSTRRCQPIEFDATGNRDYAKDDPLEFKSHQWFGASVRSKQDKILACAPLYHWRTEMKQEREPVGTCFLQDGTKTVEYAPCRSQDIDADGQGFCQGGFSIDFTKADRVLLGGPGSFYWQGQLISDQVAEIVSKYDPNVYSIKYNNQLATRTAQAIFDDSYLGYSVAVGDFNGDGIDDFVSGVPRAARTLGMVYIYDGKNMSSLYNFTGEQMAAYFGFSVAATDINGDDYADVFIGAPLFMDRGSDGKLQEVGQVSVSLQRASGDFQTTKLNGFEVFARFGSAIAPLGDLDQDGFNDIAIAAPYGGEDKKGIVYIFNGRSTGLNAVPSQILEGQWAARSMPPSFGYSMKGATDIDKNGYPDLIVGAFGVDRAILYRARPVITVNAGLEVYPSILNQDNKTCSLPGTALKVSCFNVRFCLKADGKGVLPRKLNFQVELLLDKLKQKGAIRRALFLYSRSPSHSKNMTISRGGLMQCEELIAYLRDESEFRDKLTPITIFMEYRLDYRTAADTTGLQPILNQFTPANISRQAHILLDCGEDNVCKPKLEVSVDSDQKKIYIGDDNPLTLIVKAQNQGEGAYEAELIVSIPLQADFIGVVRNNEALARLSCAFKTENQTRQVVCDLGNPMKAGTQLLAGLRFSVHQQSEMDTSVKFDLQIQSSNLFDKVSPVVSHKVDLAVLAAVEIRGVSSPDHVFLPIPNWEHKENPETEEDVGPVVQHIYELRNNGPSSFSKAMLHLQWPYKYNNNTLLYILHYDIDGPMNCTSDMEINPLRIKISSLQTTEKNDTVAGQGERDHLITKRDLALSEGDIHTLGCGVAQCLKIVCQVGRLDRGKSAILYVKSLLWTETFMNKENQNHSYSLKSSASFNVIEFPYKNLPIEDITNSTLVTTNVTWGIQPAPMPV
T1 sequence (P18084 24-719, chain 2 of 2): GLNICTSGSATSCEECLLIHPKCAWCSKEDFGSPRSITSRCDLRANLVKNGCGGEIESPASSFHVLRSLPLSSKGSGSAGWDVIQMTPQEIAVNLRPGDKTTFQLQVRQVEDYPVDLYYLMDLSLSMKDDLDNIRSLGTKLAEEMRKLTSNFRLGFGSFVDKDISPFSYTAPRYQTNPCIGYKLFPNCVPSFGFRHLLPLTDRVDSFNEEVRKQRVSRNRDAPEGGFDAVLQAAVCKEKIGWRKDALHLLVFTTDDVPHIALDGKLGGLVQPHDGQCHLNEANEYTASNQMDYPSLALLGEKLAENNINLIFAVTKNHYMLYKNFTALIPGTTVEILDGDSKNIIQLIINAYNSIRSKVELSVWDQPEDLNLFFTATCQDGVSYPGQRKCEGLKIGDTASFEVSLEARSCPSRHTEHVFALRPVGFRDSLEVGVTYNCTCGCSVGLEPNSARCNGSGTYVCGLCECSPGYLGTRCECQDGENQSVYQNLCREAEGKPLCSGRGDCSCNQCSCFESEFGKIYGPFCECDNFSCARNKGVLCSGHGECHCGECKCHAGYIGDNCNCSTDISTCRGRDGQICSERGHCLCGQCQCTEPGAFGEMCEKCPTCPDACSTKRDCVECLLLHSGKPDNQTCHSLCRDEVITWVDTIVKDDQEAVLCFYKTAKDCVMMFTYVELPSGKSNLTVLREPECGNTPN
Procedure: (§1) ELISA assays of the integrin target-binding of soluble MICA molecules generated from pKK128-131 were performed as follows. After the respective integrins were adhered to the bottoms of the wells of the ELISA plate, the wells were washed and blocked. Each sample (100 μl) of culture supernatant was added to wells containing αVβ3 or αVβ5, incubated and washed. The soluble MICA molecules captured by the integrins were detected by HRP-conjugated antibody to human MICA developed with Ultra TMB-ELISA substrate and the optical densities read. The quantity of soluble MICA in each sample was determined by the MICA-specific ELISA.

[2] = molecular target: T2, integrin αVβ3 (UniProt P06756 31-992; P05106 27-718); test: ELISA, coated integrin, anti-MICA-HRP
T2 construct: Coated on the ELISA plate
T2 sequence (P06756 31-992, chain 1 of 2): as the sequence (P06756 31-992, chain 1 of 2) above
T2 sequence (P05106 27-718, chain 2 of 2): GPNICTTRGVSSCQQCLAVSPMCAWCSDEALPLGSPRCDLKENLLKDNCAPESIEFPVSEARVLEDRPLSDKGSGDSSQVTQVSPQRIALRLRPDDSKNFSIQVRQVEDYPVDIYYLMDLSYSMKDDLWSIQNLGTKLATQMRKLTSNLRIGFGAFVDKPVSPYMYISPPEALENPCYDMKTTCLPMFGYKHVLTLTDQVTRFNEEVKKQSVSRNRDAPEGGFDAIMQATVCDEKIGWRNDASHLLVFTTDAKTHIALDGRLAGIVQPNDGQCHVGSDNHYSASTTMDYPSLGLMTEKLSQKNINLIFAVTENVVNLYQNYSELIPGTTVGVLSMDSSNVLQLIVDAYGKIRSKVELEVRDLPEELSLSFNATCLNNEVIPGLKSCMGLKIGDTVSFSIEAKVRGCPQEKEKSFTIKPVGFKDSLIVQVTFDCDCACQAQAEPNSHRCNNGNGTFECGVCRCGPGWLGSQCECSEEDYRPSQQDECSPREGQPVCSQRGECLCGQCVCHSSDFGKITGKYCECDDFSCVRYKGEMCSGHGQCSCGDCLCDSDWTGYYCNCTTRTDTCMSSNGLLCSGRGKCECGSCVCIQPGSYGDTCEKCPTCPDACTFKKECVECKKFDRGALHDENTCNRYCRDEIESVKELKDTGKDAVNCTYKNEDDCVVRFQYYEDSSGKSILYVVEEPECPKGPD
Procedure: as §1

[3] = molecular target: T1, integrin αVβ5; test: ELISA, coated integrin, anti-MICA-HRP; remark: listed apart in the source
Procedure: (§2) The ability of the soluble MICA molecules in each of the concentrated supernatants to bind target molecules was assayed by an ELISA using the intended target proteins, integrin αVβ3 or αVβ5, as capture agents on the ELISA plate. After the respective integrins were adhered to the bottoms of the wells of the ELISA plate, the wells were washed and blocked, as well known in the field. Each sample (100 μl) of soluble MICA produced and secreted by 293T cells was added to wells containing αVβ3 or αVβ5, incubated and washed. The soluble MICA molecules captured by the integrins were detected by HRP-conjugated antibody to human MICA developed with Ultra TMB-ELISA substrate and the optical densities read. The quantity of soluble MICA in each sample was determined by the MICA-specific ELISA. […] The ELISA signal from a non-binding, negative control MICA (generated by pSW273) was subtracted from each integrin binding signal.

[4] = molecular target: T2, integrin αVβ3; test: ELISA, coated integrin, anti-MICA-HRP; remark: listed apart in the source
Procedure: as §2

[5] = molecular target: T1, integrin αVβ5; test: phage ELISA, coated integrin, anti-M13-HRP
Procedure: (§3) The phage vectors were independently transformed into NEBαF′tet competent E. coli cells. Phages produced by the transformed cells were tittered and their concentrations adjusted by dilution to 10¹³ per ml. The ability of the soluble MICA molecules in each of the phage preparations was assayed by an ELISA using the intended target proteins, integrin αVβ3 or αVβ5, as capture agents on the ELISA plate. After the respective integrins were adhered to the bottoms of the wells of the ELISA plate, the wells were washed and blocked, as well known in the field. Each sample (100 μl) of phage preparation was added to wells containing αVβ3 or αVβ5, incubated and washed. The phages captured by the integrins were detected by HRP-conjugated antibody to the M13 phage coat developed with Ultra TMB-ELISA substrate and the optical densities read.

[6] = molecular target: T2, integrin αVβ3; test: phage ELISA, coated integrin, anti-M13-HRP
Procedure: as §3

[7] = molecular target: T1, integrin αVβ5; test: phage ELISA, coated integrin, anti-M13-HRP; remark: listed apart in the source
Procedure: (§4) The ELISA assays of the integrin target-binding of M13 phages displaying α3 domains with binding peptide inserts grafted into more than one loop were performed as follows. After the respective integrins were adhered to the bottoms of the wells of the ELISA plate, the wells were washed and blocked. Each sample (100 μl) of phage preparation was added to wells containing αVβ3 or αVβ5, incubated and washed. The phages captured by the integrins were detected by HRP-conjugated antibody to the M13 phage coat developed with Ultra TMB-ELISA substrate and the optical densities read.

[8] = molecular target: T2, integrin αVβ3; test: phage ELISA, coated integrin, anti-M13-HRP; remark: listed apart in the source
Procedure: as §4

Binder | αvβ5 signal [5] | αvβ3 signal [6] | further results
B1 |  |  | αvβ5 signal [1]: 0.66 OD; αvβ5 signal/ng [1]: 13.3 signal/ng MICA; αvβ3 signal [2]: 0.467 OD; αvβ3 signal/ng [2]: 9.42 signal/ng MICA; αvβ5 signal [3]: 1.06 OD; αvβ5 signal/ng [3]: 25.5 signal/ng MICA; αvβ3 signal [4]: 0.384 OD; αvβ3 signal/ng [4]: 9.2 signal/ng MICA
B2 | 1.49 OD | 0.999 OD | 
B3 | 0.657 OD | 0.707 OD | 
B4 | -0.204 OD | -0.09 OD | 
B5 | 2.56 OD | 1.49 OD | 
B6 | 2.59 OD | 1.55 OD | 
B7 | 1.23 OD | 1.49 OD | 
B8 | 0 OD | 0 OD | αvβ5 signal [7]: 0 OD; αvβ3 signal [8]: 0 OD
